{"source": "patent US20250368714A1", "about": "“TREATMENT OF CANCER” (Immutep S.A.S., priority 2022, published 2025)", "molecules": {"B1": {"name": "IMP321: recombinant soluble human LAG-3Ig fusion protein, 160-kDa dimer: extracellular domain of hLAG-3 fused to human IgG1 Fc; APC activator (protein)", "chain": "LQPGAEVPVVWAQEGAPAQLPCSPTIPLQDLSLLRRAGVTWQHQPDSGPPAAAPGHPLAPGPHPAAPSSWGPRPRRYTVLSVGPGGLRSGRLPLQPRVQLDERGRQRGDFSLWLRPARRADAGEYRAAVHLRDRALSCRLRLRLGQASMTASPPGSLRASDWVILNCSFSRPDRPASVHWFRNRGQGRVPVRESPHHHLAESFLFLPQVSPMDSGPWGCILTYRDGFNVSIMYNLTVLGLEPPTPLTVYAGAGSRVGLPCRLPAGVGTRSFLTAKWTPPGGGPDLLVTGDNGDFTLRLEDVSQAQAGTYTCHIHLQEQQLNATVTLAIITVTPKSFGSPGSLGKLLCEVTPVSGQERFVWSSLDTPSQRSFSGPWLEAQEAQLLSQPWQCQLYQGERLLGAAVYFTELSSPG", "modifications": "left off: small tags and cut ends; a dimerising Fc or GST"}}, "key": {"[1]": {"system": "Blood cell subsets (CD4, CD8, PBMCs, monocytes) and Th1 biomarker (CXCL-10)", "assay": "AIPAC immuno-monitoring of blood cell subsets, Th1 biomarker and absolute lymphocyte count", "format": "in vivo, human", "method": "Immuno-monitoring was also conducted. Blood cell subsets (CD4, CD8, PBMCs, monocytes) and Th1 biomarker (CXCL-10) were measured centrally. Comparison was done using 2-sided Wilcoxon test.\n(§1) On the other hand, pre-study levels of CD8+ T cells were not correlated with OS in either treatment arm. Efti increases secondary target cells (CD8+ T cells) in the peripheral blood, leading to improved OS.\nIncrease of ALC is linked to improved survival for patients treated with efti arm, but not for patients in the placebo arm (FIG. 9). […] As this increase is observed early, it could be used in the future as a potential early on study biomarker for treatment continuation."}, "[2]": {"system": "primary and secondary immune cells", "assay": "PD effects in vitro and ex vivo: activation of immune cells, induction of cytokines", "format": "cell-based"}, "[3]": {"system": "HER2 negative hormone receptor-positive metastatic breast cancer patients", "assay": "AIPAC Phase IIb study: paclitaxel+IMP321 vs paclitaxel+placebo, overall survival", "format": "in vivo, human", "method": "A multicentre, placebo-controlled, double-blind, 1:1 randomised Phase IIb study in female HER2 negative hormone receptor-positive metastatic breast cancer patients was conducted. The study comprised two stages: • stage 1 which was an open-label, safety run-in stage consisting of cohorts 1 and 2 to confirm the recommended Phase II dose (RPTD) of IMP321 in combination with paclitaxel; and • stage 2 which was a placebo-controlled, double-blind randomisation stage, paclitaxel+IMP321 at the RPTD compared to paclitaxel+placebo.\nThe chemo-immunotherapy phase consisted of 6 cycles of 4 weeks. Patients received weekly paclitaxel at Days 1, 8 and 15 with adjunctive treatment of study agent (IMP321) on Days 2 and 16 of each 4-week cycle. After completion of the 6-cycle chemo-immunotherapy phase, responding or stable patients received study agent (IMP321) every 4 weeks during the maintenance phase for an additional period of up to 12 injections.\nThe chemo-immunotherapy phase consisted of 6 cycles of 4 weeks. Patients received weekly paclitaxel at Days 1, 8 and 15 with adjunctive treatment of study agent (placebo) on Days 2 and 16 of each 4-week cycle.\nAfter completion of the 6-cycle chemo-immunotherapy phase, responding or stable patients received study agent (placebo) every 4 weeks during the maintenance phase for an additional period of up to 12 injections.\nIn addition, multivariate analysis was done using backward selection (p>0.15) from the univariate cox model."}, "[4]": {"assay": "Clinical safety and tolerability of IMP321 (efti)"}, "[5]": {"conditions": "human, in vivo"}, "[6]": {"assay": "Nonclinical toxicity study", "format": "in vivo"}, "[7]": {"assay": "Pharmacokinetics of s.c. IMP321 in metastatic renal cell cancer patients", "format": "in vivo, human", "conditions": "for at least 24 hours after s.c. injection; doses of more than 6 mg"}, "[8]": {"system": "CD4+ and CD8+ T cells numbers and activation status, IFN-γ and CXCL10", "assay": "PD markers of T cell immune response in patients dosed with efti every 2 weeks", "format": "in vivo, human"}, "[9]": {"assay": "Clinical pharmacokinetics of s.c. efti in cancer patients", "format": "in vivo, human", "conditions": "for Cavg24h: cancer patients", "method": "as §1\nEfti doses of 6 and 30 mg given clinically lead to plasma Cmax of ≥1 ng/ml in most patients, this concentration reflecting the minimum concentration for desired efti PD effects. However, systemic efti levels of >1 ng/ml and lasting for ≥24 h have been observed in about 90% of patients receiving efti 30 mg, compared to only 20% at 6 mg."}, "[10]": {"conditions": "Overall population, paclitaxel+IMP321 30 mg vs paclitaxel+placebo, univariate analysis, p 0.197"}, "[11]": {"conditions": "Sub-group <5 years since diagnosis, multivariate analysis table, p 0.025"}, "[12]": {"conditions": "Sub-group <65 years, univariate analysis, p 0.017"}, "[13]": {"conditions": "Sub-group Luminal B, univariate analysis, p 0.049"}, "[14]": {"conditions": "Sub-group high (>3.65) NLR at baseline, multivariate analysis table, p 0.012"}, "[15]": {"conditions": "Sub-group low baseline monocytes (<0.25/nL), univariate analysis, p 0.008"}, "[16]": {"conditions": "Sub-group low baseline monocytes, multivariate analysis table, p 0.008"}, "[17]": {"conditions": "Sub-group no prior taxane therapy, multivariate analysis table, p 0.076"}, "[18]": {"conditions": "Sub-group no prior taxane therapy, univariate analysis, p 0.076"}, "[19]": {"conditions": "8 treatment emergent adverse events in 3 of 5 patients with Cmax >10 ng/ml"}}, "data": [{"molecule": "B1", "values": [{"measurement": "On treatment fold-change of PBMCs", "setting": "[1]; IMP321 group vs placebo 1.41, p=0.041", "value": 2.00, "unit": "fold"}, {"measurement": "On treatment fold-change of T cells", "setting": "[1]; IMP321 group vs placebo 1.48, p=0.086", "value": 2.28, "unit": "fold"}, {"measurement": "On treatment fold-change of CXCL10", "setting": "[1]; IMP321 group vs placebo 1.56, p=0.06", "value": 2.78, "unit": "fold"}, {"measurement": "On treatment fold-change of monocytes", "setting": "[1]; IMP321 group vs placebo 2.29, p=0.025", "value": 5.81, "unit": "fold"}, {"measurement": "absolute lymphocyte count increase", "setting": "[1]; efti arm, early (after 4 weeks) and sustainable", "value": "≥ 0.2", "unit": "nL⁻¹"}, {"measurement": "circulating CD8+ T cells", "setting": "[1]; efti arm, fresh whole blood by FACS (n=75), samples 2 weeks after previous efti dose, not in placebo arm", "value": "sustainable, statistically significant increase"}, {"measurement": "Post baseline CD8 T cells count (median)", "setting": "[1]; patients with improved OS, IMP321 group vs placebo 223, p=0.005", "value": 377, "unit": "µL⁻¹"}, {"measurement": "Post baseline CD4 T cells count (median)", "setting": "[1]; patients with improved OS, IMP321 group vs placebo 736, p=0.038", "value": 896, "unit": "µL⁻¹"}, {"measurement": "efti concentration at which desired PD effects start", "setting": "[2]", "value": "1 to 10", "unit": "ng/mL"}, {"measurement": "Absolute gain in median OS", "setting": "[3]; [10]", "value": "+2.9 months"}, {"measurement": "Hazard Ratio [95% CI] (OS)", "setting": "[3]; [10]", "value": 0.88}, {"measurement": "Absolute gain in median OS", "setting": "[3]; [11]", "value": "+4.8 months"}, {"measurement": "Hazard Ratio [95% CI] (OS)", "setting": "[3]; [11]", "value": 0.62}, {"measurement": "Absolute gain in median OS", "setting": "[3]; [12]", "value": "+7.5 months"}, {"measurement": "Hazard Ratio [95% CI] (OS)", "setting": "[3]; [12]", "value": 0.66}, {"measurement": "Absolute gain in median OS", "setting": "[3]; [13]", "value": "+4.2 months"}, {"measurement": "Hazard Ratio [95% CI] (OS)", "setting": "[3]; [13]", "value": 0.67}, {"measurement": "Absolute gain in median OS", "setting": "[3]; [14]", "value": "+6.9 months"}, {"measurement": "Hazard Ratio [95% CI] (OS)", "setting": "[3]; [14]", "value": 0.61}, {"measurement": "Absolute gain in median OS", "setting": "[3]; [15]", "value": "+19.6 months"}, {"measurement": "Hazard Ratio [95% CI] (OS)", "setting": "[3]; [15]", "value": 0.44}, {"measurement": "Absolute gain in median OS", "setting": "[3]; [16]", "value": "+19.6 months"}, {"measurement": "Hazard Ratio [95% CI] (OS)", "setting": "[3]; [16]", "value": 0.44}, {"measurement": "Absolute gain in median OS", "setting": "[3]; [17]", "value": "+4.8 months"}, {"measurement": "Hazard Ratio [95% CI] (OS)", "setting": "[3]; [17]", "value": 0.74}, {"measurement": "Absolute gain in median OS", "setting": "[3]; [18]", "value": "+4.8 months"}, {"measurement": "Hazard Ratio [95% CI] (OS)", "setting": "[3]; [18]", "value": 0.74}, {"measurement": "improvement in median overall survival (OS)", "setting": "[3]; young patients (<65 years), low baseline monocytes (<0.25/nL), or Luminal B, exploratory univariate analysis", "value": "significant and clinically meaningful improvement"}, {"measurement": "grade ≥3 adverse events related to efti", "setting": "[4]; 5 patients with Cmax of >10 ng/ml at dose 1", "value": "no grade ≥3 adverse events related to efti"}, {"measurement": "adverse reactions mild in severity", "setting": "[4]; [19]", "value": 62.5, "unit": "%"}, {"measurement": "adverse reactions moderate in severity", "setting": "[4]; [19]", "value": 37.5, "unit": "%"}, {"measurement": "dose limiting toxicity", "setting": "[4]; observed to date", "value": "No dose limiting toxicity"}, {"measurement": "safety and tolerability of dose", "setting": "[5]", "value": "safe and tolerable"}, {"measurement": "safety of s.c. doses", "setting": "[5]; sc", "value": "safe"}, {"measurement": "NOAEL dose", "setting": "[6]", "value": 15, "unit": "mg/kg"}, {"measurement": "blood concentration of IMP321", "setting": "[7]", "value": "> 1", "unit": "ng/mL"}, {"measurement": "proportion of patients with upregulation of at least one PD marker (1.4-fold increase compared to baseline)", "setting": "[8]; 1 mg", "value": "about 50%"}, {"measurement": "proportion of patients with upregulation of at least one PD marker (1.4-fold increase compared to baseline)", "setting": "[8]; 30 mg", "value": "about 90%"}, {"measurement": "patients with systemic efti levels of >1 ng/ml lasting for ≥24 h", "setting": "[9]; 6 mg", "value": 20, "unit": "%"}, {"measurement": "Cavg24h", "setting": "[9]; 6 mg", "value": 0.8, "unit": "ng/mL"}, {"measurement": "patients with systemic efti levels of >1 ng/ml lasting for ≥24 h", "setting": "[9]; 30 mg", "value": "about 90%"}, {"measurement": "Cavg24h", "setting": "[9]; 30 mg s.c.", "value": 3.3, "unit": "ng/mL"}, {"measurement": "plasma Cmax", "setting": "[9]; doses of 6 and 30 mg, in most patients", "value": "≥ 1", "unit": "ng/mL"}, {"measurement": "time until efti disappears from the bloodstream after injection", "setting": "[9]; s.c. injection", "value": "3 to 4", "unit": "days"}]}]}
